# Test results taken from the DeepSol protein solubility set.
# Test: soluble on expression in E. coli; label from the status in PepcDB or PDB records
row,Sequence,soluble on expression in E. coli
1,MASWSHPQFEKGALEDPRSLYDLPPYGDATLLYFSDLHGQAFPHYFMEPPNLIAPKPLMGRPGYLTGEAILRYYGVERGTPLAYLLSYVDFVELARTFGPIGGMGALTALIRDQKARVEAEGGKALVLDGGDTWTNSGLSLLTRGEAVVRWQNLVGVDHMVSHWEWTLGRERVEELLGLFRGEFLSYNIVDDLFGDPLFPAYRIHRVGPYALAVVGASYPYVKVSHPESFTEGLSFALDERRLQEAVDKARAEGANAVVLLSHNGMQLDAALAERIRGIDLILSGHTHDLTPRPWRVGKTWIVAGSAAGKALMRVDLKLWKGGIANLRVRVLPVLAEHLPKAEDVEAFLKAQLAPHQDHLFTPLAVSETLLYKRDTLYSTWDQLVGEAVKAIYPEVEVVFSPAVRWGTTILPGQAITWDHLYAYTGFTYPELYLFYLRGAQIKAVLEDIASNVFTSDPFYQQGGDVSRVFGLRYVLDPDAPTGERVREVEVGGRPLDPNRRYLAAAYGGRLQRVGEAKPGYEPRPIYEVLAEYLRSVGRVRVRPEPNVKVIGRNYRLPEVTG,soluble
2,MGSDKIHHHHHHMLKPSDKWSWYFSDSEGYLMLNLGDDMLFRTNLSRNLLVDCAFIENPFTVDDASDFQLYKEHIACLPLSEPRKAELALYCVAAKRFHKPVQPKSWFFDVQGTGYTPQQGQLISLRNSLNSGIFIALEVGENATLCAYSDLVSFALNGSKTLEFGQVIKVMHDRMSDVNTLLYTPQMAMVS,not soluble
3,MKQTNPFVYSNDNKRYHTWNYCLREEFGQKTYKVALDGGFDCPNRDGTVAHGGCTFCSAAGSGDFAGNRALDLKVQFQQVRDKMQTKWKDGKCIAYFQAFTNTHAPVAELREKFETVLNEPGVVGLSIATRPDCLPDDVVEYLAELNERTYLWLELGLQSAHDETGRLINRAHDYDCYLEGVRKLQKHNIRICTHIINGLPKETPEMMMETAQKVVESGVDGIKIHLLHLLKGTPMVEDYKKGDLEFLTRDGYVNLVADQLEILPPEMVIHRITGDGGVDDLIGPVWSLNKFEVLNAIDAELVRRDSWQGKLYQPVEVSSK,not soluble
4,MGSSHHHHHHSSGLVPRGSHMESAIGEHLQCPRTLTRRVPDTYTPPFPMWVGRADDALQQVVMGYLGVQFRDEDQRPAALQAMRDIVAGFDLPDGPAHHDLTHHIDNQGYENLIVVGYWKDVSSQHRWSTSTPIASWWESEDRLSDGLGFFREIVAPRAEQFETLYAFQEDLPGVGAVMDGISGEINEHGYWGSMRERFPISQTDWMQASGELRVIAGDPAVGGRVVVRGHDNIALIRSGQDWADAEADERSLYLDEILPTLQSGMDFLRDNGPAVGCYSNRFVRNIDIDGNFLDLSYNIGHWASLDQLERWSESHPTHLRIFTTFFRVAAGLSKLRLYHEVSVFDAADQLYEYINCHPGTGMLRDAVTIAEH,soluble
5,MGSDKIHHHHHHMKETEARAAEALRRLLENIPILHVEGIDAEAVSGDWVPDLIARLVVDGKRHLLICEYKSSGQPRFARSALLELRNYVAQRAPEATPVFIAPYISPVVRKMCEEKGVGYLDLEGNARIAFGGVFIERMVTDKPVVEQRELRSLFRPKSAQVLRAMLRDPGRAWRVTELSEISGVSLGHVSNVRTGLIDREWARASDDGLILSEPDALLDAWRDSYAAPAGERSSFYTPLHGSALEDAARSVLRVEDTRGRAAFASFSAAQWLAPYGRTGTHYFFADEDGLRKLQAALKLAPALKGENVIVTVPKDLGLLADTVEPAPGAICTSPVQTYLDLSIAGERGAEAADHLRQERLSWPR,not soluble
6,MTELERHLLNALEQLQQDYMQRLNEWESAFVELQKMFSLTQRDNAMLNEQVMQLSQQVQHLSERTERLSQLYSENRRLEHHHHHH,not soluble
7,MAKILVLYYSMYGHIETMAHAVAEGAKKVDGAEVIIKRVPETMPPEIFAKAGGKTQNAPVATPQELADYDAIIFGTPTRFGNMSGQMRTFLDQTGGLWASGSLYGKLGSVFSSTGTGGGQEQTITSTWTTLAHHGMVIVPIGYAAQELFDVSQVRGGTPYGATTIAGGDGSRQPSQEELSIARYQGEYVAGLAVKLNG,not soluble
8,MSLAQTQLSYKNKTYQISYEILGDLSLPQILILHGWGADKKLMKQSFCPFLKDFCQIYMDLAGFGNSSVEEILNTQDYANITELFLKQKKLNVCFFMGHSFGGKVSTLLAKEKDTLILLSSAGILAKKSLKVRFKIRIFKILKLFGLGKFYRYFASKDGANLSPIMYETFKKVVDEDFSEIFAKQKAKSLIFWGKSDEATPLYCGEKMHQFLKNSTFYPLEGDHFFFLKHSAFIAQKIKEEGHHHHHH,soluble
9,SMTGPIVYVQNADGIFFKLAEGKGTNDAVIHLANQDQGVRVLGAEEFPVQGEVVKIASLMGFIKLKLNRYAIIANTVEETGRFNGHVFYRVLQHSIVSTKFNSRIDSEEAEYIKLLELHLKNSTFYFSYTYDLTNSLQRNEKVGPAASWKTADERFFWNHYLTEDLRNFAHQDPRIDSFIQPVIYGYAKTVDAVLNATPIVLGLITRRSIFRAGTRYFRRGVDKDGNVGNFNETEQILLAENPESEKIHVFSFLQTRGSVPIYWAEINNLKYKPNLVLGENSLDATKKHFDQQKELYGDNYLVNLVNQKGHELPVKEGYESVVHALNDPKIHYVYFDFHHECRKMQWHRVKLLIDHLEKLGLSNEDFFHKVIDSNGNTVEIVNEQHSVVRTNCMDCLDRTNVVQSVLAQWVLQKEFESADVVATGSTWEDNAPLLTSYQNLWADNADAVSVAYSGTGALKTDFTRTGKRTRLGAFNDFLNSASRYYQNNWTDGPRQDSYDLFLGG,soluble
10,MAHHHHHHMFLFRHSAEPMEAEEERHERVDSTTEPHNAATAAARKRRTSADVANGEVSREASGVAESFDETGGAPHTPREGTAPPPDVHDMLEHQRPRDEDDAEADMAAAALAASAPAPFHGVPTLPMPRTCDENPQAEADGNSTQRHRSYSHTSRFAAPSPRSTSGISRGRSYSLSGLSAAELADVHEQQYRRCTSIVKSARCISARRASSVNGVVGVIDDLYTLASRRSSAMTEAERVAVERMIENEYRRQEAAERSAQFALARESIIVNEELAREKATYVRRMHLNEELHARLAKSSRTRQERMTAAAQRRQEIEQERLRVLYGSMMEKDTRYHFRNPYEMMAAQRRYSIEMRSPAAIAPQRRASSPSTRASGNAQMSPRSAEGVANCTTEDRCTSSPATRRRSSTPSIAKSKPRQCLPLDAWKKPVPPRKDSCRSDISAEHRCRSPTDWRATAVLEHPRQWH,not soluble
11,MSESSHVGLWNRCLEIIRDNVPESTYKTWFVPIVPLKYEDKTLIVQVPSQFFYEFLEDKFVDLLRKTLYKVIGDGTKLMYNVLVDKSSGATVNQESTTRSTAIPQSGLPRVDERKAPGLLRAPAVQDLDPHLNPNYNFETFIEGYSNKLSRSVAEAVAENPAKTVFNPLFLHGASGVGKTHLANAIGTRIKELYPDKRVLYVSAHLFQVQYTDSVRNNTTNDFINFYQTIDVLIIDDIQEFAGVTKTQNTFFHIFNHLHQNGKQLILTSDRAPVLLQGMEERLLTRFKWGMVAELEKPTVELRKNILRNKIHRDGLQFPSEVIDYIAENVNESVRDLEGIVISIMAHSTIYNKEIDLDLAQRIVRKVVRCETKAVTIDDIINVVCKHFDLESSAIHTKSRKREVVQARQVAMYLAKTHTDFSTSKIGKFIGNKDHATVLHACKTVKGQCEVDKGFRSDLENIETLLKKRNVSNGERLEHHHHHH,soluble
12,ASMTGGQQMGRGSDSKPPYSYAQLIVQAITMAPDKQLTLNGIYTHITKNYPYYRTADKGWQNSIRHNLSLNRYFIKVPRSQEEPGKGSFWRIDPASESKLIEQAFRKRRPR,soluble
13,MGSDKIHHHHHHMRIFFLDQSGKPGGAELCLIDIAKPYSHSALVGLFADGPFKDLLEQNHIPVEILATQTIQVSKESSLAQGLKSLGQLAPLITKVIKKAREYDLIYANTQKALVVGALASFFSRRPLVYHLHDILSTEHFSQTNLRIAINLANRCASLVIANSQASKTAFIQAGGRSDIVEVVYNGFDLKIYQTDEPGINQLQQKLGLQGKFVVGHFSRLAPWKGQHILIDALAKCPPEVTVILVGDALFGEQDYAQKLHKQVTDLGLENRVKFLGFRSDIPQLMAACDLVAHTSTSPEPFGRVIVEAMLCGKPVVAAKAGGVMELVEHGLNGFLVTPGEPQELAQVIITCLQETEITATIANNARTTASRRFDVATINQQIAQLLSHRF,not soluble
